Source: US20220175781A1, “CD40L COMPOSITIONS AND METHODS FOR TUNABLE REGULATION” (Obsidian Therapeutics, Inc., priority 2019, published 2022)

How the values were obtained:
Assay type in all cases: cell-based
[1] = tested on: Jurkat cells; test: Surface expression of CD40L by FACS in lentivirally transduced Jurkat cells; conditions: for CD40L positive percent of live cells / Geometric Mean of CD40L fluorescent intensity: FACS
Method: 50,000 Jurkat cells were transduced with lentiviruses corresponding to the constructs. OT-001661, OT-001685, OT-001662, or OT-001666 and cultured for 48h. Cells were split and incubated with ligands for 24h before analysis by flow cytometry.
Jurkat cells were treated with one of the following: 1 μM Shield-1, 50 μM TMP, 1 μM Bazedoxifene (BZD) or vehicle control. Surface expression of CD40L was measured using FACS and the results are show in Table 9. All values were normalized to mode.

[2] = tested on: CD8 positive T cells; test: CD40L MFI by FACS in transduced CD8 positive T cells
Method: Regulation of ecDHFR (R12Y, Y100I) DRD based construct OT-001662 and ER (N413D) DRD based construct OT-001666 were tested in CD8 positive T cells. For OT-001662, expressing cells, ligand was added 6 days after viral transduction at a dose of 50 μM TMP. OT-001666 expressing cells were treated with 0.5 μM Bazedoxifene or vehicle control, 5 days after transduction. Approximately 15-30k cells were analyzed per sample by FACS. All samples were compared to empty vector control as well as the constitutively expressed construct, OT-001661. Table 11 provides the mean fluorescence intensities (MFIs) obtained with each sample.

[3] = tested on: CD8+ T cells; test: Ligand dose response, % CD40L positive cells, CD8+ T cells
Method: Ligand dose response curve experiments were performed with increasing doses of ligand using OT-001662 and OT-001666 constructs in both CD4+ as well as CD8+ T cells.
The experiments were conducted using three different volumes of virus for transduction i.e. 0.5, 2 and 10 μL.

[4] = tested on: T cells; test: Dose response of TMP, Bazedoxifene or Raloxifene, % CD40L positive T cells; conditions: T cells
Method: T cells were transduced with OT-001662 or OT-001666. On day 4, cells were treated with increasing doses of TMP for T cells expressing OT-001662. Cells expressing OT-001666 were treated either with increasing concentrations of Bazedoxifene or Raloxifene. The data are shown in Table 30 as the percentage of CD40L positive T cells.

[5] = tested on: HEK-Blue™ CD40 cells; test: HEK-Blue CD40 SEAP reporter co-culture with transduced Jurkat cells; conditions: ligand 24 h (1 μM Shield-1, 50 μM TMP or 1 μM Bazedoxifene), recombinant soluble CD40L as standard
Method: Jurkat cells transduced with OT-001661, OT-001685, OT-001662, OT-001666, or OT-001667 were co-cultured with HEK-Blue™ CD40 cells (Invivogen, San Diego, Calif.). Cocultures were treated with ligands (1 μM Shield-1, 50 μM TMP, 1 μM Bazedoxifene (BZD) or vehicle control) for 24 hours and the secreted embryonic alkaline phosphatase (SEAP) reporter levels were measured in the media. All vehicle treated samples had background SEAP activity. Recombinant soluble CD40L was used as the standard in the experiments.

[6] = tested on: Monocyte derived dendritic cells (mDC); test: Cytokine production in mDC-T cell co-culture (MSD); conditions: mDC-T cell co-culture 2 days
Description: In order to engage dendritic cells in an immune response, dendritic cells must be converted to a functional state by an antigen-specific CD4+ helper T cell. Activation of the dendritic cells may be followed by the activation of CD8+ T cells by the dendritic cells, a process referred to as dendritic cell licensing. Engagement of the CD40L expressed on the CD4+ cells with the CD40 on the dendritic cells can result in (i) dendritic cell stimulation-measured by expression of co-stimulatory and MHC molecules (ii) proinflammatory cytokine release (e.g. IL12, TNFα and INFγ) (iii) epitope spreading. To measure the effect of CD40L expression that is tuned by the biocircuits of the present disclosure, CD4+ T cells or Jurkat cells expressing any of the CD40L constructs described herein were co-cultured with dendritic cells.
Dendritic cell function in response to co-culture with T cells expressing CD40L was evaluated in the presence of ligand or corresponding vehicle control. Monocyte derived dendritic cells (mDC) (CD14+) were isolated from fresh blood and cultured for 5 days with IL-4 (7.5 ng/mL) and GM-CSF (20 ng/mL). The mDCs were frozen down after the 5 day culture. T cells were transduced with OT-001662 and expanded for 9 days before being frozen down. mDCs and T cells were thawed and co-cultured 1:10 DC: T cell ratio (i.e. 5×10^4 DCs: 5×10^5 T cells). mDC and T cells were co-cultured for 2 days before cells were collected for flow cytometry and supernatants were collected for cytokine analysis. For evaluation of regulated constructs, ligand (various doses of TMP) was added at the time initiating the co-culture and was kept in the co-culture for 2 days. Cytokines were analyzed by MSD after a single freeze thaw cycle. All cells were cultured in complete RPMI with 10% FBS during the course of the experiment. SR indicates stabilization ratio.

[7] = ligand 24 h (1 μM Shield-1 OT-001685, 50 μM TMP OT-001662, 1 μM Bazedoxifene OT-001666)
[8] = vehicle 24 h (Ethanol 0.2% OT-001685, DMSO 0.5% OT-001662, DMSO 0.01% OT-001666)
[9] = constitutive construct, no DRD, no ligand

B1: OT-001666 (Met; ER (305-549 of WT, L384M, N413D, M421G, G521R, Y537S); Histidine; CD40L; stop) (ligand)
chain: MSLALSLTADQMVSALLDAEPPILYSEYDPTRPFSEASMMGLLTNLADRELVHMINWAKRVPGFVDLTLHDQVHLLECAWMEILMIGLVWRSMEHPGKLLFAPNLLLDRDQGKCVEGGVEIFDMLLATSSRFRMMNLQGEEFVCLKSIILLNSGVYTFLSSTLKSLEEKDHIHRVLDKITDTLIHLMAKAGLTLQQQHQRLAQLLLILSHIRHMSNKRMEHLYSMKCKNVVPLSDLLLEMLDAHRLHMIETYNQTSPRSAATGLPISMKIFMYLLTVFLITQMIGSALFAVYLHRRLDKIEDERNLHEDFVFMKTIQRCNTGERSLSLLNCEEIKSQFEGFVKDIMLNKEETKKENSFEMQKGDQNPQIAAHVISEASSKTTSVLQWAEKGYYTMSNNLVTLENGKQLTVKRQGLYYIYAQVTFCSNREASSQAPFIASLCLKSPGRFERILLRAANTHSSAKPCGQQSIHLGGVFELQPGASVFVNVTDPSQVSHGTGFTSFGLLKL
- CD40L positive percent of live cells [1, 7]: 38.4%
- Geometric Mean of CD40L fluorescent intensity [1, 7]: 421
- CD40L positive percent of live cells [1, 8]: 0.024%
- Geometric Mean of CD40L fluorescent intensity [1, 8]: 21.5
- CD40L MFI ([2]; +Ligand (50 μM TMP OT-001662; 0.5 μM Bazedoxifene OT-001666)): 33.1
- CD40L MFI ([2]; Vehicle): 35.4
- % CD40L positive cells ([3]; 2 μL virus, BZD 0.05 nM): 0.69%
- % CD40L positive cells ([3]; 2 μL virus, BZD 0.5 nM): 0.52%
- % CD40L positive cells ([3]; 2 μL virus, BZD 5 nM): 0.71%
- % CD40L positive cells ([3]; 2 μL virus, BZD 50 nM): 3.32%
- % CD40L positive cells ([3]; 2 μL virus, BZD 500 nM): 60%
- % CD40L positive cells ([3]; 10 μL virus, BZD 0.05 nM): 0.5%
- % CD40L positive cells ([3]; 10 μL virus, BZD 0.5 nM): 0.2%
- % CD40L positive cells ([3]; 10 μL virus, BZD 5 nM): 0.23%
- % CD40L positive cells ([3]; 10 μL virus, BZD 50 nM): 17.7%
- % CD40L positive cells ([3]; 10 μL virus, BZD 500 nM): 68.5%
- % CD40L positive T cells, dose response ([4]; increasing concentrations of Bazedoxifene): dose dependent increase
- Raloxifene dependent expression ([4]; increasing concentrations of Raloxifene): observed only at the 1 μM dose
- Soluble CD40L [5]: 1824.7 pg/mL

B2: OT-001661: constitutively expressed full length CD40L construct (protein)
chain: MHMIETYNQTSPRSAATGLPISMKIFMYLLTVFLITQMIGSALFAVYLHRRLDKIEDERNLHEDFVFMKTIQRCNTGERSLSLLNCEEIKSQFEGFVKDIMLNKEETKKENSFEMQKGDQNPQIAAHVISEASSKTTSVLQWAEKGYYTMSNNLVTLENGKQLTVKRQGLYYIYAQVTFCSNREASSQAPFIASLCLKSPGRFERILLRAANTHSSAKPCGQQSIHLGGVFELQPGASVFVNVTDPSQVSHGTGFTSFGLLKL
- CD40L positive percent of live cells [1, 9]: 99.4%
- Geometric Mean of CD40L fluorescent intensity [1, 9]: 10075
- CD40L expression relative to untransduced cells ([1]; constitutive construct): higher than untransduced cells
- Cytokine Production IFNg ([6]; DMSO): 12973 pg/mL
- Cytokine Production IL12 ([6]; DMSO): 58.935 pg/mL
- Cytokine Production TNFa ([6]; DMSO): 456.3242 pg/mL
- Cytokine Production IFNg ([6]; TMP): 10939.9 pg/mL
- Cytokine Production IL12 ([6]; TMP): 86.229 pg/mL
- Cytokine Production TNFa ([6]; TMP): 440.0804 pg/mL
- Soluble CD40L [5]: 9341.40 pg/mL
